B3: ParE toxin of the parDE system from the broad host range plasmid RK2 (natural protein)
chain: MTAYILTAEAEADLRGIIRYTRREWGAAQVRRYIAKLEQGIARLAAGEGPFKDMSELFPALRMARCEHHYVFCLPRAGEPALVVAILHERMDLMTRLADRLKG
notes: also called GST-ParE

Assays:
Conditions in all cases: both partners purified
[1] = biological target: T1, ClpA, the ATPase unit of ClpAP protease (E. coli, UniProt P0ABH9 1-758); assay: SPR; BIAcore 2000; ParD or ParE immobilised on a CM5 chip, ClpA injected; HBS-EP buffer with 10 mM magnesium acetate and 2 mM ATP; flow 15 µl/min
T1 construct: ClpA, ATP-dependent unfoldase subunit of the ClpAP protease, E. coli; also called ClpA ATPase; source: purified by a published protocol [55]
T1 sequence (looked up): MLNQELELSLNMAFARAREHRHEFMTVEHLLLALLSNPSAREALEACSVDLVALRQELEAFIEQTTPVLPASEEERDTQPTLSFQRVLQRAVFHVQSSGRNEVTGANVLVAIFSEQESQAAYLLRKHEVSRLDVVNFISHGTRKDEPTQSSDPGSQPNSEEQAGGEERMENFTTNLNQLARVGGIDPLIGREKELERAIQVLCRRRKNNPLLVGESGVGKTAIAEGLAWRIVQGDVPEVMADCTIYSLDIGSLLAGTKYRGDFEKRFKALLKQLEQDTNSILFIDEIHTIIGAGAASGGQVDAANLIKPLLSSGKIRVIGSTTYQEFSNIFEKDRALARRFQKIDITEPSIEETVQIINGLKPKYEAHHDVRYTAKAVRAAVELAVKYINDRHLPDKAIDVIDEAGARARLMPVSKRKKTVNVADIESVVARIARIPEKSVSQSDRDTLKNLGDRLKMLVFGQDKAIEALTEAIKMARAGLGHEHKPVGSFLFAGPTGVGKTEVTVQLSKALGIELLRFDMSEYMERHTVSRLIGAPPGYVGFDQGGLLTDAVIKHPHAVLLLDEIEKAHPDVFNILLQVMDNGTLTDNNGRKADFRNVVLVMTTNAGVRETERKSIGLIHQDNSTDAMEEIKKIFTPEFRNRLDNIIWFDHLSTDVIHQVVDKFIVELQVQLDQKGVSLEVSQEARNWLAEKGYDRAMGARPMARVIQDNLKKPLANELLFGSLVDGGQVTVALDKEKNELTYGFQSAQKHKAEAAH

[2] = biological target: B3; assay: SPR; BIAcore 2000; ClpA immobilised on a CM5 chip; ParD (200 nM) injected to pre-form the ClpA-ParD complex, then ParE (200 nM) injected; ParD or buffer as controls; HBS-EP buffer with 10 mM magnesium acetate and 2 mM ATP
[3] = biological target: T1, ClpA, the ATPase unit of ClpAP protease; assay: SPR; BIAcore 2000; ClpA immobilised on a CM5 chip; mixture of ParD (200 nM) preincubated with increasing concentrations of ParE injected; HBS-EP buffer with 10 mM magnesium acetate and 2 mM ATP
[4] = biological target: T2, pre-formed ClpA-ParD complex (E. coli | plasmid RK2, UniProt P0ABH9;P22995); assay: SPR; BIAcore 2000; ClpA immobilised on a CM5 chip; ParD (200 nM) injected to pre-form the ClpA-ParD complex, then ParE (200 nM) injected; ParD or buffer as controls; HBS-EP buffer with 10 mM magnesium acetate and 2 mM ATP
T2 construct: also called ParD-ClpA complex; source: formed on the sensor chip: purified ParD (200 nM) injected onto immobilised purified ClpA
T2 sequence 1: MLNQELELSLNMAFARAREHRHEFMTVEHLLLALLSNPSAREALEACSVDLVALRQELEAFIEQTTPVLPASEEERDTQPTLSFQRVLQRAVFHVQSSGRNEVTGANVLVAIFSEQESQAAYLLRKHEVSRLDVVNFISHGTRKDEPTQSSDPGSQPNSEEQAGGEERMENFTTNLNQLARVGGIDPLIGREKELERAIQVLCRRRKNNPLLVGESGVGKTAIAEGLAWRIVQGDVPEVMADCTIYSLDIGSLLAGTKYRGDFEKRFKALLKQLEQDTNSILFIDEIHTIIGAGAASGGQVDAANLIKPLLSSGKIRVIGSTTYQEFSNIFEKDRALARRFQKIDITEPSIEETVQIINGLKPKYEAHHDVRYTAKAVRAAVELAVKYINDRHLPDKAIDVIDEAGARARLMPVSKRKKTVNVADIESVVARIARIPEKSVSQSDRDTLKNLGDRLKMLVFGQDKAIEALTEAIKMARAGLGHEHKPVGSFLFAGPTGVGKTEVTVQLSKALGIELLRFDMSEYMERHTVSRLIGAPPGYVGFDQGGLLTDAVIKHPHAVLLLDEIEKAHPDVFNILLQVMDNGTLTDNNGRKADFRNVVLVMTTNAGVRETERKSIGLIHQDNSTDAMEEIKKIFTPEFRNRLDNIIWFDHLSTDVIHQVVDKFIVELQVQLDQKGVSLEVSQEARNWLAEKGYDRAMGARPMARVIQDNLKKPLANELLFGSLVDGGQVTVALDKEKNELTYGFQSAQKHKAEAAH
T2 sequence 2: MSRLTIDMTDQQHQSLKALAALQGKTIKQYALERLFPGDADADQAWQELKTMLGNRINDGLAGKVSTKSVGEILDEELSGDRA

B1: ParD antitoxin of the parDE system from the broad host range plasmid RK2 (natural protein, UniProt P22995 1-83, looked up)
chain: MSRLTIDMTDQQHQSLKALAALQGKTIKQYALERLFPGDADADQAWQELKTMLGNRINDGLAGKVSTKSVGEILDEELSGDRA
notes: the construct is not described for the SPR; source: purified by a published protocol [30]
binding result [1]: binds | binding result [2]: binds

B2: ParD-ParE complex (preincubated ParD and ParE proteins) (complex)
chain 1: MSRLTIDMTDQQHQSLKALAALQGKTIKQYALERLFPGDADADQAWQELKTMLGNRINDGLAGKVSTKSVGEILDEELSGDRA
chain 2: MTAYILTAEAEADLRGIIRYTRREWGAAQVRRYIAKLEQGIARLAAGEGPFKDMSELFPALRMARCEHHYVFCLPRAGEPALVVAILHERMDLMTRLADRLKG
notes: the ParD2-ParE2 make-up is cited from earlier work and not measured here; also called ParD-ParE heterotetamer; ParDE complex; source: purified ParD (200 nM) preincubated with increasing concentrations of purified ParE; copies: 2 + 2
binding result [3]: binds

B3
binding result [4]: binds

Source: publication PMC6191456 (Scientific Reports, 2018)
